Data published in publication PMC3210390.
Residue numbers refer to the chain shown, from its start.

T1: Tfam HMG-box B (Homo sapiens, UniProt Q00059 153-222)
T1 sequence: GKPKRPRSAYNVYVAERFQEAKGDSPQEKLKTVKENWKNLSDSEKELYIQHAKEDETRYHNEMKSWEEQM

T2: Tfam L6 (Homo sapiens, UniProt Q00059 43-246, K136A;H137A;K139A;R140A;K146A;K147A)
T2 sequence: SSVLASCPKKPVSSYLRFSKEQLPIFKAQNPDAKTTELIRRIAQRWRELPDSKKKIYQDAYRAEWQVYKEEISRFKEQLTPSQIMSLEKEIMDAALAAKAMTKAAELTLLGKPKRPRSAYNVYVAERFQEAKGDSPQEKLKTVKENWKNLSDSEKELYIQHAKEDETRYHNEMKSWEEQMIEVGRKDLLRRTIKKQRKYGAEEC

T3: Tfam Y162A (Homo sapiens, UniProt Q00059 43-246, Y162A)
T3 sequence: T2 sequence with A94K, A95H, A97K, A98R, A104K, A105K, Y120A

T4: Tfam T77A (Homo sapiens, UniProt Q00059 43-246, T77A)
T4 sequence: T2 sequence with T35A, A94K, A95H, A97K, A98R, A104K, A105K

T5: Tfam WT (mature) (Homo sapiens, UniProt Q00059 43-246)
T5 sequence: T2 sequence with A94K, A95H, A97K, A98R, A104K, A105K

T6: Tfam HMG-box A (Homo sapiens, UniProt Q00059 43-122)
T6 sequence: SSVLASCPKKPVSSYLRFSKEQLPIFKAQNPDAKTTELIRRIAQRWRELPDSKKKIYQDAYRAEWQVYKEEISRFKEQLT

B1: LSP 28 bp (dsDNA)
DNA 1: TGTTAGTTGGGGGGTGACTGTTAAAAGT
DNA 2: ACTTTTAACAGTCACCCCCCAACTAACA
B2: LSP 28 bp Cy3/Cy5 (dsDNA)
DNA 1: TGTTAGTTGGGGGGTGACTGTTAAAAGT
DNA 2: ACTTTTAACAGTCACCCCCCAACTAACA

Legend:
Tfam HMG-box B = biological target: T1, Tfam HMG-box B; experiment: intrinsic Trp fluorescence quenching
Tfam L6 [1] = biological target: T2, Tfam L6; experiment: intrinsic Trp fluorescence quenching
Tfam Y162A [2] = biological target: T3, Tfam Y162A; experiment: intrinsic Trp fluorescence quenching
Tfam T77A [3] = biological target: T4, Tfam T77A; experiment: intrinsic Trp fluorescence quenching
Tfam WT (mature) [4] = biological target: T5, Tfam WT (mature); experiment: intrinsic Trp fluorescence quenching
Tfam HMG-box A = biological target: T6, Tfam HMG-box A; experiment: intrinsic Trp fluorescence quenching
Tfam L6 [5] = biological target: T2, Tfam L6; experiment: FRET bending
Tfam Y162A [6] = biological target: T3, Tfam Y162A; experiment: FRET bending
Tfam T77A [7] = biological target: T4, Tfam T77A; experiment: FRET bending
Tfam WT (mature) [8] = biological target: T5, Tfam WT (mature); experiment: FRET bending

Row | Binder | Kd (Tfam HMG-box B) | Kd (Tfam L6 [1]) | Kd (Tfam Y162A [2]) | Kd (Tfam T77A [3]) | Kd (Tfam WT (mature) [4]) | Kd (Tfam HMG-box A) | binding signal (Tfam L6 [5]) | binding signal (Tfam Y162A [6]) | binding signal (Tfam T77A [7]) | binding signal (Tfam WT (mature) [8])
1 | B1 | 411 ± 46 nM | 10.1 ± 1.2 nM | 12.3 ± 1.8 nM | 7.6 ± 1.1 nM | 6 ± 0.9 nM | 6.5 ± 1.2 nM |  |  |  | 
2 | B2 |  |  |  |  |  |  | 26.1 ± 0.6 % FRET efficiency | 29.4 ± 0.6 % FRET efficiency | 31.4 ± 0.2 % FRET efficiency | 36.5 ± 0.8 % FRET efficiency
